The source of these data is US20220135694A1, “NOVEL CD40-BINDING ANTIBODIES” (LAVA THERAPEUTICS B.V., priority 2019, published 2022).

For assay [1], the target named is T1, CD40 (Homo sapiens, UniProt P25942).
T1 construct: Primary chronic lymphocytic leukemia (CLL) cells express CD40 on the cell surface; endogenous in cells; host or cells: primary CLL PBMCs from untreated CLL patients
Description: CD40 agonistic activity in primary CLL cells, 48 h, flow cytometry. Type of assay: cell-based. To be noted: for CD40 stimulation (viability, CD86 and CD95 expression): various concentrations, FIG. 3A-C. On the procedure:
PBMCs (≥90% CD5^+CD19^+) from untreated CLL patients were obtained and cryopreserved as described in Example 3. Thawed cells were kept in complete IMDM.
To assess whether binding of the VHH to CD40 has agonistic effects, primary CLL PBMCs were cultured for 48 hours in the presence of VHH, medium control or recombinant multimeric CD40 ligand (rmCD40L; 100 ng/mL, Bioconnect).
After 48 hours, cells were harvested, washed and incubated with AF700-conjugated anti-CD19 (557921), FITC-conjugated anti-CD80 (6109965), APC-conjugated anti-CD86 (555660, all BD Biosciences), PE-conjugated anti-CD5 (12-0059-42, Thermo Fisher Scientific) and PECy7-conjugated anti-CD95 (305621, Biolegend, San Diego, Calif., USA) antibodies for 20 minutes at 4° C. Alternatively, after 48 hours, cells were harvested and viability was measured using Mitotracker Orange (25-minute incubation at 37° C.) and To-pro-3 (10-minute incubation at room temperature; both Thermo Fisher Scientific). Samples were measured on a FACSCanto cytometer (BD Biosciences) and analyzed with Flowjo MacV10.
To assess whether binding of the VHH has agonistic effects, primary CLL PBMCs were cultured with the indicated concentrations of V19S76K-5C8, medium control or rmCD40L for 48 hours and analyzed by flow cytometry as described in Example 4.
In general terms: A flow cytometer gives signals particle by particle.

Assay [2] deals with T2, human CD40 (human, UniProt P25942 21-277).
T2 construct: In the assays it stood on CD40-transfected HEK293T cells, primary CLL cells or the CLL-derived CII cell line; also called tumor necrosis factor receptor superfamily member 5; TNR5_HUMAN
Description: flow cytometry, CD40-transfected HEK293T cells, VHH 1 µM, Myc-tag detection; controls: cells without VHH and WT HEK293T with and without VHH. On the procedure:
FIG. 1: Anti-CD40 VHHs bind to CD40-expressing cells. (A) CD40 expression on WT (filled histogram) and CD40-transfected (unfilled histogram) HEK293T cells. (B) CD40-negative WT or CD40-transfected HEK293T cells were incubated with V12t (1 μM), V15t (1 μM), V19t (1 μM) or medium control and the Myc-tag was subsequently detected by flow cytometry. Representative histograms obtained in 3 independent experiments are shown.

For assay [3], the target named is T3, human CD40 (CD40-transfected HEK293T cells) (Homo sapiens, UniProt P25942).
T3 construct: expressed in transfected cells; host or cells: HEK293T
Description: Monovalent VHH binding to CD40-transfected HEK293T cells, Myc-tag flow cytometry. To be noted: for average geometric mean fluorescence intensity (Myc-tag): CD40-transfected HEK293T cells, 2 experiments. On the procedure: The embryonic kidney cell line HEK293T, either wildtype (WT) or transfected with human CD40, was grown in Dulbecco's Modified Eagle Medium (41965-039, Thermo Fisher Scientific, Waltham, Mass., USA), supplemented with 10% fetal calf serum (F7524, Merck, Kenilworth, N.J., USA), 200 mM L-glutamine (25030-123, Thermo Fisher Scientific), 0.05 mM β-mercapto-ethanol (M6250, Merck) and 10,000 U/mL penicillin/streptomycin (15140-122, Thermo Fisher Scientific), hereafter referred to as complete DMEM.
CD40 expression on CD40-transfected cells was confirmed by incubation with a PE-conjugated anti-CD40 antibody (IM1936U, Beckman Coulter, Brea, Calif., USA) for 20 minutes at 4° C. […] Bound VHH was detected by sequential incubation with mouse-anti-Myc tag (05-274, Merck) and AF488-conjugated goat-anti-mouse (A-11001, Thermo Fisher Scientific) antibodies for 20 minutes at 4° C.
Samples were measured on a FACSCanto cytometer (BD Biosciences, Franklin Lakes, N.J., USA) and analyzed with Flowjo MacV10.

The target in assay [4] is T1, CD40. Description: CD40 antagonistic activity in primary CLL cells: pre-incubation, then rmCD40L for 48 h. To be noted: 30 min pre-incubation, then rmCD40L 100 ng/mL for 48 hours; FIG. 4A-C. Type of assay: cell-based. Here is the method:
PBMCs (≥90% CD5^+CD19^+) from untreated CLL patients were obtained and cryopreserved as described in […]. Thawed cells were kept in complete IMDM.
To test whether the VHH antagonizes CD40 stimulation, primary CLL PBMCs were pre-incubated with VHH or medium control for 30 minutes at 37° C. and subsequently cultured for 48 hours in the presence of rmCD40L (100 ng/mL).
After 48 hours, cells were analyzed by flow cytometry as described in Example 4.
To assess whether binding of the VHH has antagonistic effects, primary CLL PBMCs were pre-incubated with V19S76K-5C8 or medium control and then cultured with rmCD40L for 48 hours and analyzed by flow cytometry as described in Example 5.

Assay [5] deals with T2, human CD40. Kind of assay: cell-based or functional assay.
Assay [6] deals with CD40+ CII target cells. Kind of assay: Cytotoxicity assay: CII target cells with Vγ9Vδ2-T cells. To be noted: overnight with Vγ9Vδ2-T cells, 1:1 ratio; FIG. 11A. The assay is classed as cell-based, human. Here is the method:
CD40^+ CII cells and Vγ9Vδ2-T cells were grown as described in Example 7.
CII target cells were labeled with carboxyfluorescein succinimidyl ester (CFSE; C1157, Thermo Fisher Scientific) and incubated with VHH or medium control for 30 minutes at 37° C. Target cells were then cocultured overnight with Vγ9Vδ2-T cell lines in a 1:1 ratio.
Viability was measured as described in Example 4.

T3 sequence (P25942 21-277): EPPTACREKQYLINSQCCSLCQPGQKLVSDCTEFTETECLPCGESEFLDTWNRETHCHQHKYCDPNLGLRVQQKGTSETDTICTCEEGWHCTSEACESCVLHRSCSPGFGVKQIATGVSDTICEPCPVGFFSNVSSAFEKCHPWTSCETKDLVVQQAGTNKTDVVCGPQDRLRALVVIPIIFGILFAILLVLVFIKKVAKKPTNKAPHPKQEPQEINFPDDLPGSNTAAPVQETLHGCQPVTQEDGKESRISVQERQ
T2 sequence (P25942 21-277 limits assumed): as the sequence (P25942 21-277) above
T1 sequence (P25942 21-277): as above

For “rmCD40L: recombinant multimeric CD40 ligand, 100 ng/mL, Bioconnect [reference compound]”, the “CD40 stimulation (expression of CD80, CD86 and CD95)” value in assay [1] (FIG. 7A-C) is given as “effectively induced CD40 stimulation”. In addition, the “CD40 stimulation (viability, CD86 and CD95 expression)” value in assay [1] was “effectively induced CD40 stimulation”.

B1: V15t (VHH)
VHH: EVQLQESGGGLVQAGGSLRLSCVTSGSAFSSDTMGWFRQAPGKQRELVASISSRGVREYADSVKGRFTISRDNAKNTVYLQMNSLQPEDTAVYYCNRGALGLPGYRPYNNWGQGTQVTVSS
notes: Llama VHH with C-terminal Myc- and His6-tag; also called monovalent anti-CD40 VHH V15t
In the case of B1, in assay [2], the binding result is listed as “binds”.

B2: V12t: monovalent anti-CD40 VHH V12 with C-terminal Myc- and His6-tag, SEQ ID NO:36 (protein)
VHH: QVQLQESGGGLVQAGGSLRLSCAASGLVFKRYSMNWYRQPPGQQRGLVASISDSGVSTNYADSVKGRFTISRDNAKNIGYLQMNSLKPEDTAVYYCNMHTFWGQGTQVTVSSGLEGHSDHMEQKLISEEDLNRISDHHHHHH
modifications: antibody sequence
Regarding B2, in assay [3] (detection of the Myc tag, FIG. 1B), the “binding to CD40-expressing cells” value is recorded as “bound to the CD40-expressing cells”. The “prevention of CD40L-induced CD40 stimulation (viability, CD86 and CD95 expression)” value in assay [4] is “did not block CD40L-induced effects”. In addition, in assay [1], the “CD40 stimulation (viability, CD86 and CD95 expression)” value is “did not induce any of these effects”.

B3: V12-5C8t (bispecific antibody)
chain: QVQLQESGGGLVQAGGSLRLSCAASGLVFKRYSMNWYRQPPGQQRGLVASISDSGVSTNYADSVKGRFTISRDNAKNIGYLQMNSLKPEDTAVYYCNMHTFWGQGTQVTVSSGGGGSEVQLVESGGGLVQAGGSLRLSCAASGRPFSNYAMGWFRQAPGKEREFVAAISWSGGSTSYADSVKGRFTISRDNAKNTVYLQMNSPKPEDTAIYYCAAQFSGADYGFGRLGIRGYEYDYWGQGTQVTVSSGLEGHSDHMEQKLISEEDLNRISDHHHHHH
For the molecule B3, the “lysis of primary CLL cells by Vγ9Vδ2-T cells (specific cell death) at 100 nM” value in assay [5] was determined as 45.3%.

B4: V12-5C8t: bispecific VHH: anti-CD40 V12 joined to anti-Vδ2-TCR 5C8 by Gly4Ser linker, Myc- and His6-tag, SEQ ID NO:37 (protein)
VHH: B3 chain
modifications: antibody sequence
On to B4, for which, in assay [6], the “lysis of CII target cells” value is on record as “less potent”.

B5: V19-5C8t (bispecific antibody)
chain: QVQLQESGGGLVQAGGSLRLSCAASGRTFGRSAMGWFRQAPGKEREFVAAIGTRGGSTKYADSVKGRFTISTDNASNTVYLQMDSLKPEDTAVYRCAVRGPGYPSAAIFQDEYHYWGQGTQVTVSSGGGGSEVQLVESGGGLVQAGGSLRLSCAASGRPFSNYAMGWFRQAPGKEREFVAAISWSGGSTSYADSVKGRFTISRDNAKNTVYLQMNSPKPEDTAIYYCAAQFSGADYGFGRLGIRGYEYDYWGQGTQVTVSSGLEGHSDHMEQKLISEEDLNRISDHHHHHH
B5: the “lysis of primary CLL cells by Vγ9Vδ2-T cells (specific cell death) at 100 nM” value in assay [5] is 68.5%.

B6: V12t (VHH)
VHH: QVQLQESGGGLVQAGGSLRLSCAASGLVFKRYSMNWYRQPPGQQRGLVASISDSGVSTNYADSVKGRFTISRDNAKNIGYLQMNSLKPEDTAVYYCNMHTFWGQGTQVTVSS
notes: Llama VHH with C-terminal Myc- and His6-tag; also called monovalent anti-CD40 VHH V12t
B6: the binding result in assay [2] is “binds”.

B7: V19S76Kt: V19t VHH in which serine at position 76 (putative glycosylation site) was altered into lysine, SEQ ID NO:22 (protein)
VHH: QVQLQESGGGLVQAGGSLRLSCAASGRTFGRSAMGWFRQAPGKEREFVAAIGTRGGSTKYADSVKGRFTISTDNAKNTVYLQMDSLKPEDTAVYRCAVRGPGYPSAAIFQDEYHYWGQGTQVTVSSGLEGHSDHMEQKLISEEDLNRISDHHHHHH
modifications: antibody sequence
Regarding B7, the “binding affinity to CD40 after S76K mutation, relative to V19t” value in assay [3] was “retained”. Besides, the “average geometric mean fluorescence intensity (Myc-tag)” value is listed as 4790 in assay [3] (VHH concentration 1 pM); 4949 in assay [3] (VHH concentration 10 pM); 5502 in assay [3] (VHH concentration 100 pM); 7906 in assay [3] (VHH concentration 1 nM); 9283 in assay [3] (VHH concentration 10 nM); 17062 in assay [3] (VHH concentration 100 nM).

B8: V15-5C8t (bispecific antibody)
chain: EVQLQESGGGLVQAGGSLRLSCVTSGSAFSSDTMGWFRQAPGKQRELVASISSRGVREYADSVKGRFTISRDNAKNTVYLQMNSLQPEDTAVYYCNRGALGLPGYRPYNNWGQGTQVTVSSGGGGSEVQLVESGGGLVQAGGSLRLSCAASGRPFSNYAMGWFRQAPGKEREFVAAISWSGGSTSYADSVKGRFTISRDNAKNTVYLQMNSPKPEDTAIYYCAAQFSGADYGFGRLGIRGYEYDYWGQGTQVTVSSGLEGHSDHMEQKLISEEDLNRISDHHHHHH
As for B8, the “lysis of primary CLL cells by Vγ9Vδ2-T cells (specific cell death) at 100 nM” value in assay [5] is 70.5%.
